Reference: patent publication US20150344570A1 (published 2015)

Legend:
[1] = target: T1, FcγRIa extracellular domain with C-terminal His tag (human, UniProt P12314 16-292); assay: ratio He/Con_1a : He/Con_2b (FcγRIa over FcγRIIb), SPR (Biacore)
T1 construct: extracellular domain; Soluble receptor used as analyte in Biacore; also called FcgRI

[2] = target: T1, FcγRIa extracellular domain with …; assay: SPR (Biacore), antibody captured, FcγR as analyte; binding relative to GpH7-A5/GpH7-B3/GpL16-k0 = 100
[3] = target: T2, FcγRIIb extracellular domain with C-terminal His tag (human, UniProt P31994 43-217); assay: as above
T2 construct: extracellular domain; Soluble receptor used as analyte in Biacore; also called FcgRIIb
T2 sequence (looked up): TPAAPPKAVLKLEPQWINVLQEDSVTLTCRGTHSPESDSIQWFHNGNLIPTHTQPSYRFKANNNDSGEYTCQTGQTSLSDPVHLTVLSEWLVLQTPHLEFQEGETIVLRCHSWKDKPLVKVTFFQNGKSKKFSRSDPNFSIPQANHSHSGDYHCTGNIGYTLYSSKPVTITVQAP

T1 sequence (P12314 16-292): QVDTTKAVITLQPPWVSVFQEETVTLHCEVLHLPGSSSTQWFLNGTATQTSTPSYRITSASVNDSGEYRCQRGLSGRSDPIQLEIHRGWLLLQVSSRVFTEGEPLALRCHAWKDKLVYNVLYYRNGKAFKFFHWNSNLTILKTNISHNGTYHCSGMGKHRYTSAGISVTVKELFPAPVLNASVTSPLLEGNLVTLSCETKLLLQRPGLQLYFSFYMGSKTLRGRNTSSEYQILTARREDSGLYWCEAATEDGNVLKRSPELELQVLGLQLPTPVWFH

Binder | He_1a/2b (Ia/IIb) [1] | He/Con_1a [2] | He/Con_2b [3]
GpH7-A5/GpH7-B3 variant K326_06M/GpL16-k0 (antibody, human IgG1, kappa, Heterodimerized IgG1, mutation in the GpH7-B3 chain only; also called He Ab) heavy 1: not shown heavy 2: not shown light: DIVMTQSPLSLPVTPGEPASISCQASESLVHSNRNTYLHWYLQKPGQSPQLLIYKVSNRFSGVPDRFSGSGSGTDFTLKISRVEAEDVGVYYCSQNTHVPPTFGQGTKVEIERTVAAPSVFIFPPSDEQLKSGTASVVCLLNNFYPREAKVQWKVDNALQSGNSQESVTEQDSKDSTYSLSSTLTLSKADYEKHKVYACEVTHQGLSSPVTKSFNRGEC | 0.62 | 102 control = 100 | 165 control = 100
GpH7-A5/GpH7-B3 variant K326_07I/GpL16-k0 (antibody, human IgG1, kappa, Heterodimerized IgG1, mutation in the GpH7-B3 chain only; also called He Ab) heavy 1: not shown heavy 2: not shown light: DIVMTQSPLSLPVTPGEPASISCQASESLVHSNRNTYLHWYLQKPGQSPQLLIYKVSNRFSGVPDRFSGSGSGTDFTLKISRVEAEDVGVYYCSQNTHVPPTFGQGTKVEIERTVAAPSVFIFPPSDEQLKSGTASVVCLLNNFYPREAKVQWKVDNALQSGNSQESVTEQDSKDSTYSLSSTLTLSKADYEKHKVYACEVTHQGLSSPVTKSFNRGEC | 0.51 | 101 control = 100 | 199 control = 100
GpH7-A5/GpH7-B3 variant K326_14T/GpL16-k0 (antibody, human IgG1, kappa, Heterodimerized IgG1, mutation in the GpH7-B3 chain only; also called He Ab) heavy 1: not shown heavy 2: not shown light: DIVMTQSPLSLPVTPGEPASISCQASESLVHSNRNTYLHWYLQKPGQSPQLLIYKVSNRFSGVPDRFSGSGSGTDFTLKISRVEAEDVGVYYCSQNTHVPPTFGQGTKVEIERTVAAPSVFIFPPSDEQLKSGTASVVCLLNNFYPREAKVQWKVDNALQSGNSQESVTEQDSKDSTYSLSSTLTLSKADYEKHKVYACEVTHQGLSSPVTKSFNRGEC | 0.7 | 104 control = 100 | 150 control = 100
GpH7-A5/GpH7-B3 variant S267_03V/GpL16-k0 (antibody, human IgG1, kappa, Heterodimerized IgG1, mutation in the GpH7-B3 chain only; also called He Ab) heavy 1: not shown heavy 2: not shown light: DIVMTQSPLSLPVTPGEPASISCQASESLVHSNRNTYLHWYLQKPGQSPQLLIYKVSNRFSGVPDRFSGSGSGTDFTLKISRVEAEDVGVYYCSQNTHVPPTFGQGTKVEIERTVAAPSVFIFPPSDEQLKSGTASVVCLLNNFYPREAKVQWKVDNALQSGNSQESVTEQDSKDSTYSLSSTLTLSKADYEKHKVYACEVTHQGLSSPVTKSFNRGEC | 0.55 | 106 control = 100 | 192 control = 100
GpH7-A5/GpH7-B3 variant K326_09D/GpL16-k0 (antibody, human IgG1, kappa, Heterodimerized IgG1, mutation in the GpH7-B3 chain only; also called He Ab) heavy 1: not shown heavy 2: not shown light: DIVMTQSPLSLPVTPGEPASISCQASESLVHSNRNTYLHWYLQKPGQSPQLLIYKVSNRFSGVPDRFSGSGSGTDFTLKISRVEAEDVGVYYCSQNTHVPPTFGQGTKVEIERTVAAPSVFIFPPSDEQLKSGTASVVCLLNNFYPREAKVQWKVDNALQSGNSQESVTEQDSKDSTYSLSSTLTLSKADYEKHKVYACEVTHQGLSSPVTKSFNRGEC | 0.54 | 103 control = 100 | 193 control = 100
GpH7-A5/GpH7-B3 variant P271_01G/GpL16-k0 (antibody, human IgG1, kappa, Heterodimerized IgG1, mutation in the GpH7-B3 chain only; also called He Ab) heavy 1: not shown heavy 2: not shown light: DIVMTQSPLSLPVTPGEPASISCQASESLVHSNRNTYLHWYLQKPGQSPQLLIYKVSNRFSGVPDRFSGSGSGTDFTLKISRVEAEDVGVYYCSQNTHVPPTFGQGTKVEIERTVAAPSVFIFPPSDEQLKSGTASVVCLLNNFYPREAKVQWKVDNALQSGNSQESVTEQDSKDSTYSLSSTLTLSKADYEKHKVYACEVTHQGLSSPVTKSFNRGEC | 0.54 | 105 control = 100 | 193 control = 100
GpH7-A5/GpH7-B3 variant S267_06M/GpL16-k0 (antibody, human IgG1, kappa, Heterodimerized IgG1, mutation in the GpH7-B3 chain only; also called He Ab) heavy 1: not shown heavy 2: not shown light: DIVMTQSPLSLPVTPGEPASISCQASESLVHSNRNTYLHWYLQKPGQSPQLLIYKVSNRFSGVPDRFSGSGSGTDFTLKISRVEAEDVGVYYCSQNTHVPPTFGQGTKVEIERTVAAPSVFIFPPSDEQLKSGTASVVCLLNNFYPREAKVQWKVDNALQSGNSQESVTEQDSKDSTYSLSSTLTLSKADYEKHKVYACEVTHQGLSSPVTKSFNRGEC | 0.51 | 106 control = 100 | 210 control = 100
GpH7-A5/GpH7-B3 variant K326_08L/GpL16-k0 (antibody, human IgG1, kappa, Heterodimerized IgG1, mutation in the GpH7-B3 chain only; also called He Ab) heavy 1: not shown heavy 2: not shown light: DIVMTQSPLSLPVTPGEPASISCQASESLVHSNRNTYLHWYLQKPGQSPQLLIYKVSNRFSGVPDRFSGSGSGTDFTLKISRVEAEDVGVYYCSQNTHVPPTFGQGTKVEIERTVAAPSVFIFPPSDEQLKSGTASVVCLLNNFYPREAKVQWKVDNALQSGNSQESVTEQDSKDSTYSLSSTLTLSKADYEKHKVYACEVTHQGLSSPVTKSFNRGEC | 0.57 | 100 control = 100 | 177 control = 100
GpH7-A5/GpH7-B3 variant S267_10E/GpL16-k0 (antibody, human IgG1, kappa, Heterodimerized IgG1, mutation in the GpH7-B3 chain only; also called He Ab) heavy 1: not shown heavy 2: not shown light: DIVMTQSPLSLPVTPGEPASISCQASESLVHSNRNTYLHWYLQKPGQSPQLLIYKVSNRFSGVPDRFSGSGSGTDFTLKISRVEAEDVGVYYCSQNTHVPPTFGQGTKVEIERTVAAPSVFIFPPSDEQLKSGTASVVCLLNNFYPREAKVQWKVDNALQSGNSQESVTEQDSKDSTYSLSSTLTLSKADYEKHKVYACEVTHQGLSSPVTKSFNRGEC | 0.28 | 106 control = 100 | 379 control = 100
GpH7-A5/GpH7-B3 variant K326_15Y/GpL16-k0 (antibody, human IgG1, kappa, Heterodimerized IgG1, mutation in the GpH7-B3 chain only; also called He Ab) heavy 1: not shown heavy 2: not shown light: DIVMTQSPLSLPVTPGEPASISCQASESLVHSNRNTYLHWYLQKPGQSPQLLIYKVSNRFSGVPDRFSGSGSGTDFTLKISRVEAEDVGVYYCSQNTHVPPTFGQGTKVEIERTVAAPSVFIFPPSDEQLKSGTASVVCLLNNFYPREAKVQWKVDNALQSGNSQESVTEQDSKDSTYSLSSTLTLSKADYEKHKVYACEVTHQGLSSPVTKSFNRGEC | 0.66 | 106 control = 100 | 159 control = 100
GpH7-A5/GpH7-B3 variant S267_02A/GpL16-k0 (antibody, human IgG1, kappa, Heterodimerized IgG1, mutation in the GpH7-B3 chain only; also called He Ab) heavy 1: not shown heavy 2: not shown light: DIVMTQSPLSLPVTPGEPASISCQASESLVHSNRNTYLHWYLQKPGQSPQLLIYKVSNRFSGVPDRFSGSGSGTDFTLKISRVEAEDVGVYYCSQNTHVPPTFGQGTKVEIERTVAAPSVFIFPPSDEQLKSGTASVVCLLNNFYPREAKVQWKVDNALQSGNSQESVTEQDSKDSTYSLSSTLTLSKADYEKHKVYACEVTHQGLSSPVTKSFNRGEC | 0.45 | 109 control = 100 | 243 control = 100
GpH7-A5/GpH7-B3 variant S267_07I/GpL16-k0 (antibody, human IgG1, kappa, Heterodimerized IgG1, mutation in the GpH7-B3 chain only; also called He Ab) heavy 1: not shown heavy 2: not shown light: DIVMTQSPLSLPVTPGEPASISCQASESLVHSNRNTYLHWYLQKPGQSPQLLIYKVSNRFSGVPDRFSGSGSGTDFTLKISRVEAEDVGVYYCSQNTHVPPTFGQGTKVEIERTVAAPSVFIFPPSDEQLKSGTASVVCLLNNFYPREAKVQWKVDNALQSGNSQESVTEQDSKDSTYSLSSTLTLSKADYEKHKVYACEVTHQGLSSPVTKSFNRGEC | 0.52 | 100 control = 100 | 192 control = 100
GpH7-A5/GpH7-B3 variant S267_09D/GpL16-k0 (antibody, human IgG1, kappa, Heterodimerized IgG1, mutation in the GpH7-B3 chain only; also called He Ab) heavy 1: not shown heavy 2: not shown light: DIVMTQSPLSLPVTPGEPASISCQASESLVHSNRNTYLHWYLQKPGQSPQLLIYKVSNRFSGVPDRFSGSGSGTDFTLKISRVEAEDVGVYYCSQNTHVPPTFGQGTKVEIERTVAAPSVFIFPPSDEQLKSGTASVVCLLNNFYPREAKVQWKVDNALQSGNSQESVTEQDSKDSTYSLSSTLTLSKADYEKHKVYACEVTHQGLSSPVTKSFNRGEC | 0.35 | 110 control = 100 | 310 control = 100
GpH7-A5/GpH7-B3 variant K326_20W/GpL16-k0 (antibody, human IgG1, kappa, Heterodimerized IgG1, mutation in the GpH7-B3 chain only; also called He Ab) heavy 1: not shown heavy 2: not shown light: DIVMTQSPLSLPVTPGEPASISCQASESLVHSNRNTYLHWYLQKPGQSPQLLIYKVSNRFSGVPDRFSGSGSGTDFTLKISRVEAEDVGVYYCSQNTHVPPTFGQGTKVEIERTVAAPSVFIFPPSDEQLKSGTASVVCLLNNFYPREAKVQWKVDNALQSGNSQESVTEQDSKDSTYSLSSTLTLSKADYEKHKVYACEVTHQGLSSPVTKSFNRGEC | 0.69 | 103 control = 100 | 148 control = 100
GpH7-A5/GpH7-B3 variant S267_19Q/GpL16-k0 (antibody, human IgG1, kappa, Heterodimerized IgG1, mutation in the GpH7-B3 chain only; also called He Ab) heavy 1: not shown heavy 2: not shown light: DIVMTQSPLSLPVTPGEPASISCQASESLVHSNRNTYLHWYLQKPGQSPQLLIYKVSNRFSGVPDRFSGSGSGTDFTLKISRVEAEDVGVYYCSQNTHVPPTFGQGTKVEIERTVAAPSVFIFPPSDEQLKSGTASVVCLLNNFYPREAKVQWKVDNALQSGNSQESVTEQDSKDSTYSLSSTLTLSKADYEKHKVYACEVTHQGLSSPVTKSFNRGEC | 0.47 | 102 control = 100 | 218 control = 100
GpH7-A5/GpH7-B3 variant K326_19Q/GpL16-k0 (antibody, human IgG1, kappa, Heterodimerized IgG1, mutation in the GpH7-B3 chain only; also called He Ab) heavy 1: not shown heavy 2: not shown light: DIVMTQSPLSLPVTPGEPASISCQASESLVHSNRNTYLHWYLQKPGQSPQLLIYKVSNRFSGVPDRFSGSGSGTDFTLKISRVEAEDVGVYYCSQNTHVPPTFGQGTKVEIERTVAAPSVFIFPPSDEQLKSGTASVVCLLNNFYPREAKVQWKVDNALQSGNSQESVTEQDSKDSTYSLSSTLTLSKADYEKHKVYACEVTHQGLSSPVTKSFNRGEC | 0.73 | 102 control = 100 | 139 control = 100
GpH7-A5/GpH7-B3 variant K326_10E/GpL16-k0 (antibody, human IgG1, kappa, Heterodimerized IgG1, mutation in the GpH7-B3 chain only; also called He Ab) heavy 1: not shown heavy 2: not shown light: DIVMTQSPLSLPVTPGEPASISCQASESLVHSNRNTYLHWYLQKPGQSPQLLIYKVSNRFSGVPDRFSGSGSGTDFTLKISRVEAEDVGVYYCSQNTHVPPTFGQGTKVEIERTVAAPSVFIFPPSDEQLKSGTASVVCLLNNFYPREAKVQWKVDNALQSGNSQESVTEQDSKDSTYSLSSTLTLSKADYEKHKVYACEVTHQGLSSPVTKSFNRGEC | 0.52 | 104 control = 100 | 200 control = 100
